# Where two headings read alike, the source gives them in different places. Numbered stars: 1 amine (or outer) side, 2 acyl side, 3 side chain; on linkers, the order of the positions; unused ones are H or OH. Bridge positions count the residues as written; N and C are the ends. Square brackets hold non-standard residues; d marks the D form. * marks the point of attachment. Ser(Bzl) = O-benzyl-serine, O=C([C@H](COCc1ccccc1)N[*:1])[*:2]; Nle = CCCC[C@H](N)C(=O)O; Orn = NCCC[C@H](N)C(=O)O; Dab = NCC[C@H](N)C(=O)O; Bn = c1ccc(C*)cc1
# Assays:
# [1] = molecular target: T1, human melanocortin-4 receptor (recombinant hMC4-R) (human, UniProt P32245 1-332); experiment: cell-based or functional assay
# [2] = molecular target: T1, human melanocortin-4 receptor …; experiment: competition with labelled NDP-α-MSH ([I125] or Eu), hMC4-R HEK-293 membranes
# Method: (§1) After incubation for 60 minutes at 37° C., the assay mixture was filtered and the membranes washed three times with ice-cold buffer. Filters were dried and counted in a gamma counter for bound radioactivity. […] Maximal specific binding (100%) was defined as the difference in radioactivity (cpm) bound to cell membranes in the absence and presence of 1 μM NDP-α-MSH. […] Ki values for test peptides of the present invention were determined using Graph-Pad Prism® curve-fitting software.
# (§2) After incubation for 90 minutes at 37° C., the reaction was stopped by filtration over AcroWell 96-well filter plates (Pall Life Sciences). The filter plates were washed 4 times with 200 μL of ice-cold phosphate-buffered saline. DELFIA Enhancement solution (PerkinElmer Life Sciences) was added to each well. The plates were incubated on a shaker for 15 minutes and read at 340 nm excitation and 615 nm emission wavelengths. Each assay was conducted in duplicate and mean values were utilized. Ki values were determined by curve-fitting with Graph-Pad Prism® software using a one-site fixed-slope competition binding model.
# [3] = molecular target: T1, human melanocortin-4 receptor …; experiment: cell-based or functional assay; remark: listed apart in the source
# [4] = molecular target: T1, human melanocortin-4 receptor …; experiment: competition with labelled NDP-α-MSH ([I125] or Eu), hMC4-R HEK-293 membranes; remark: listed apart in the source
# Method: as §1, §2
# T1 sequence (P32245 whole entry): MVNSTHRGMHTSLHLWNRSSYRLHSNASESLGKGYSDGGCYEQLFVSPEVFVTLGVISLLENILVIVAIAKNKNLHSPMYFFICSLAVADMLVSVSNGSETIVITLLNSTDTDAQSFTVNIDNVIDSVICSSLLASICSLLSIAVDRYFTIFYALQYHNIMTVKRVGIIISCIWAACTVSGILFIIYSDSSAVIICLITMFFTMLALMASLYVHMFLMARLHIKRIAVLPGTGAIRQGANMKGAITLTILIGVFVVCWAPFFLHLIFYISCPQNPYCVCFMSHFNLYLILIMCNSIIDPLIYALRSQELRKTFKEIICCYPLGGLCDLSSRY
Binder,"Ec50 (nM), cAMP [1] [nM]","Emax (%), cAMP [1] [%]",Ki [2] [nM],"Ec50 (nM), cAMP [3] [nM]","Emax (%), cAMP [3] [%]",Ki [4] [nM]
Ac-RE[Orn](Ac)[dF]RW[Orn]-NH2 (lactam 2-7) [Peptide No. 33: Ac-Arg-cyclo(Glu-Orn(Acetyl)-D-Phe-Arg-Trp-Orn)-NH2],3,90,7,–,–,–
"Ac-KDH[dF]RWK-NH2 (lactam 2-7; SMILES CC(=O)N[C@@H](CCCCN)C(=O)N[C@H]1CC(=O)NCCCC[C@@H](C(N)=O)NC(=O)[C@H](Cc2c[nH]c3ccccc23)NC(=O)[C@H](CCCNC(=N)N)NC(=O)[C@@H](Cc2ccccc2)NC(=O)[C@H](Cc2c[nH]cn2)NC1=O, also called Peptide Structure (Asp...Lys) in the row of No. 40) [Asp...Lys analog of peptide No. 40: Ac-Lys-cyclo(Asp-His-D-Phe-Arg-Trp-Lys)-NH2]",–,–,–,5,85,9
"Ac-RDN[dF]RWK-NH2 (lactam 2-7; SMILES CC(=O)N[C@@H](CCCNC(=N)N)C(=O)N[C@H]1CC(=O)NCCCC[C@@H](C(N)=O)NC(=O)[C@H](Cc2c[nH]c3ccccc23)NC(=O)[C@H](CCCNC(=N)N)NC(=O)[C@@H](Cc2ccccc2)NC(=O)[C@H](CC(N)=O)NC1=O, also called Peptide Structure (Asp...Lys) in the rows of No. 34 and No. 46) [Asp...Lys analog of peptides No. 34 and No. 46: Ac-Arg-cyclo(Asp-Asn-D-Phe-Arg-Trp-Lys)-NH2]",42,91,32,42,91,32
"Ac-[dR]DQ[dF]RWK-NH2 (lactam 2-7, also called Peptide Structure (Asp...Lys) in the row of No. 45) [Asp...Lys analog of peptide No. 45: Ac-D-Arg-cyclo(Asp-Gln-D-Phe-Arg-Trp-Lys)-NH2]",–,–,–,–,89,45
"Ac-RD[Ser(Bzl)][dF]RWK-OH (lactam 2-7, also called Peptide Structure (Asp...Lys) in the rows of No. 17 and No. 48) [Asp...Lys analog of peptides No. 17 and No. 48: Ac-Arg-cyclo(Asp-Ser(Bzl)-D-Phe-Arg-Trp-Lys)-OH]",5,38,9,5,38,9
"Ac-RDP[dF]RWK-NH2 (lactam 2-7, also called Peptide Structure (Asp...Lys) in the row of No. 47) [Asp...Lys analog of peptide No. 47: Ac-Arg-cyclo(Asp-Pro-D-Phe-Arg-Trp-Lys)-NH2]",–,–,–,9,43,17
"Ac-RDA[dF]RWK-NH2 (lactam 2-7, also called Peptide Structure (Asp...Lys) in the row of No. 41) [Asp...Lys analog of peptide No. 41: Ac-Arg-cyclo(Asp-Ala-D-Phe-Arg-Trp-Lys)-NH2]",–,–,–,37,74,19
Ac-EQ[dF]RW[Orn]-NH2 (lactam 1-6; SMILES CC(=O)N[C@H]1CCC(=O)NCCC[C@@H](C(N)=O)NC(=O)[C@H](Cc2c[nH]c3ccccc23)NC(=O)[C@H](CCCNC(=N)N)NC(=O)[C@@H](Cc2ccccc2)NC(=O)[C@H](CCC(N)=O)NC1=O) [Peptide No. 21: Ac-cyclo(Glu-Gln-D-Phe-Arg-Trp-Orn)-NH2],26,49,74,–,–,–
Ac-R[Orn]H[dF]RWE-OH (lactam 2-7) [Peptide No. 37: Ac-Arg-cyclo(Orn-His-D-Phe-Arg-Trp-Glu)-OH],–,–,–,0.6,88,12
Ac-R[Orn]A[dF]RWE-NH2 (lactam 2-7; SMILES CC(=O)N[C@@H](CCCNC(=N)N)C(=O)N[C@H]1CCCNC(=O)CC[C@@H](C(N)=O)NC(=O)[C@H](Cc2c[nH]c3ccccc23)NC(=O)[C@H](CCCNC(=N)N)NC(=O)[C@@H](Cc2ccccc2)NC(=O)[C@H](C)NC1=O) [Peptide No. 41: Ac-Arg-cyclo(Orn-Ala-D-Phe-Arg-Trp-Glu)-NH2],–,–,–,7,52,19
Ac-R[Orn]S(Bn)[dF]RWE-OH (lactam 2-7) [Peptide No. 48: Ac-Arg-cyclo(Orn-Ser(Bzl)-D-Phe-Arg-Trp-Glu)-OH],–,–,–,3,50,5

# Continued, values first:
"Ec50 (nM), cAMP [1] [nM]","Emax (%), cAMP [1] [%]",Ki [2] [nM],"Ec50 (nM), cAMP [3] [nM]","Emax (%), cAMP [3] [%]",Ki [4] [nM],Binder
–,–,–,0.1,103,3,Ac-R[Orn][Dab][dF]RWE-NH2 (lactam 2-7) [Peptide No. 43: Ac-Arg-cyclo(Orn-Dab-D-Phe-Arg-Trp-Glu)-NH2]
–,–,–,0.2,103,4,Ac-[dR][Orn]H[dF]RWE-NH2 (lactam 2-7) [Peptide No. 39: Ac-D-Arg-cyclo(Orn-His-D-Phe-Arg-Trp-Glu)-NH2]
–,–,–,0.2,85,0.2,Ac-[Nle][Orn]H[dF]RWE-NH2 (lactam 2-7) [Peptide No. 36: Ac-Nle-cyclo(Orn-His-D-Phe-Arg-Trp-Glu)-NH2]
–,–,–,1,84,1,Ac-R[Orn]H[dF]RWE-NH2 (lactam 2-7) [Peptide No. 38: Ac-Arg-cyclo(Orn-His-D-Phe-Arg-Trp-Glu)-NH2]
–,–,–,0.2,114,3,Ac-K[Orn]H[dF]RWE-NH2 (lactam 2-7) [Peptide No. 40: Ac-Lys-cyclo(Orn-His-D-Phe-Arg-Trp-Glu)-NH2]
–,–,–,6,54,5,Ac-R[Orn]P[dF]RWE-NH2 (lactam 2-7) [Peptide No. 47: Ac-Arg-cyclo(Orn-Pro-D-Phe-Arg-Trp-Glu)-NH2]
–,–,–,–,97,1,Ac-[Nle][Orn]H[dF]RWE-OH (lactam 2-7) [Peptide No. 35: Ac-Nle-cyclo(Orn-His-D-Phe-Arg-Trp-Glu)-OH]
